For test [1], the target named is T1, Mouse PD-1 on 293F cells (mouse, UniProt Q02242 25-288).
T1 construct: whole, on cells; also called 293F.mPro1.B4; WBP305.293F.mPro1.B4
T1 sequence (looked up): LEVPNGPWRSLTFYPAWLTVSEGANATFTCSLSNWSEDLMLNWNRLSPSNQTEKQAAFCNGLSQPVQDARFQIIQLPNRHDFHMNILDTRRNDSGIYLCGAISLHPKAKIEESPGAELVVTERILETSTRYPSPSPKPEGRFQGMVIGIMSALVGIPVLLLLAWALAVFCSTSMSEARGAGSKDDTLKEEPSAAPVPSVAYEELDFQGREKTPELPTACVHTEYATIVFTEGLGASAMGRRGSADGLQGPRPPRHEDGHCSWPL
The test can be described thus: FACS on 293F.mPro1.B4 cells. As for the experimental part:
The cells 293F.mPro1.B4 (2×10⁵ cells/well) were incubated with various concentrations of anti-PD-1 antibodies (3-fold serially diluted from 133.3 nM to 0.008 nM) at 4° C. for 1 hour. After washing with 1×PBS/1% BSA, the secondary antibody PE-labeled goat anti-human IgG was applied and incubated with cells at 4° C. for 1 hour. Human IgG4 isotype antibody was used as negative control. The cells were then washed and re-suspended in 1×PBS/1% BSA. MFI of the cells was measured by a flow cytometer and analyzed by FlowJo (version 7.6.1).

For test [2], the target named is T1, Mouse PD-1 on 293F cells. The test can be described thus: FACS competition on 293F.mPro1.B4 cells; competitor mProL1.ECD.mFc 5 µg/mL. As for the experimental part:
The mouse PD-1 transfected 293F.mPro1.B4 cells were transferred into 96-well U-bottom plates at a density of 2×10⁵ cells/well. Various concentrations of anti-PD-1 antibodies (3-fold serially diluted from 1334 nM to 0.07 nM) and constant concentration of mouse Fc tagged mouse PD-L1 ECD protein (mProL1.ECD.mFc) (5 μg/mL) were pre-mixed and incubated with cells at 4° C. for 1 hour. After washing with 1×PBS/1% BSA, the secondary antibody PE-labeled goat anti-mouse IgG was applied and incubated with cells at 4° C. for 1 hour. The cells were then washed and resuspended in 1×PBS/1% BSA. MFI of the cells was measured by a flow cytometer and analyzed by FlowJo (version 7.6.1).

Test [3] has as its target T2, Human ICOS extracellular domain, mFc tag (human, UniProt Q9Y6W8 21-140).
T2 construct: extracellular domain; also called hICOS.ECD.mFc; not shown: mouse Fc tag at C-terminus
T2 sequence (looked up): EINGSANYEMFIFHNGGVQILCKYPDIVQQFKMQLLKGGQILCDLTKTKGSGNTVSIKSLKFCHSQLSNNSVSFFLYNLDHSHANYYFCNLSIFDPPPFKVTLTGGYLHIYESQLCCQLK
The experiment in a line: ELISA, coated antigen 1 ug/mL, antibody 100 nM, HRP goat anti-human IgG. As for the experimental part:
(§1) Plates were pre-coated with 1 μg/mL, 100 μL per well of hPD-1.ECD.mFc, hCD28.ECD.mFc, hCTLA-4.ECD.His, hICOS.ECD.mFc or hBTLA.ECD.His at 4° C. overnight. After 1-hour blocking using 200 μL of 1×PBS/2% BSA, testing antibodies were added to the plates at a concentration of 100 nM. The plates were incubated at ambient temperature for 1 hour. The binding of the antibodies to the immobilized proteins was detected by HRP-labeled goat anti-human IgG antibody. The color was developed by dispensing 100 μL of TMB substrate, and then stopped by 100 μL of 2N HCl. The absorbance was read at 450 nm and 540 nm using a microplate spectrophotometer.

The target in test [4] is T3, Human CTLA-4 extracellular domain, His tag (human, UniProt P16410 36-161).
T3 construct: extracellular domain; also called hCTLA-4.ECD.His; not shown: 6xhis tag at C-terminus
T3 sequence (looked up): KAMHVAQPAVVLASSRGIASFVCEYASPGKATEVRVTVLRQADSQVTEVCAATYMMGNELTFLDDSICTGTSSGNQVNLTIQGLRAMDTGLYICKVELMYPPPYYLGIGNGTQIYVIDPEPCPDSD
Described as above. How it is done:
as §1

For test [5], the target named is T4, Human BTLA extracellular domain, His (human, UniProt Q7Z6A9 31-157).
T4 construct: extracellular domain; Bought; also called hBTLA.ECD.His; not shown: His tag
T4 sequence (looked up): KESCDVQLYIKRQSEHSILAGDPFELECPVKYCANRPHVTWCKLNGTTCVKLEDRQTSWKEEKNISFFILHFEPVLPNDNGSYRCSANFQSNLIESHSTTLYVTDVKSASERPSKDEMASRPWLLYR
The description is as above. As for the experimental part: as §1

Test [6] has as its target T5, Human PD-1 on CHO-S cells (human, UniProt Q15116 25-288).
T5 construct: whole, on cells; also called CHO-S.hPro1.C6; WBP305.CHO-S.hPro1.C6
The experiment in a line: FACS competition on CHO-S.hPro1.C6 cells; competitor hProL1.ECD.mFc 5 µg/mL. As for the experimental part:
The human PD-1 transfected CHO-S.hPro1.C6 cells were transferred into 96-well U-bottom plates at a density of 2×10⁵ cells/well. Various concentrations of antibodies (4-fold serially diluted from 133.3 nM to 0.008 nM) and constant concentration of mouse Fc tagged PD-L1 ECD protein (hProL1.ECD.mFc) (5 μg/mL) were pre-mixed and incubated with cells at 4° C. for 1 hour. After washing with 1×PBS/1% BSA, the secondary antibody PE-labeled goat anti-mouse IgG was applied and incubated with cells at 4° C. for 1 hour. The cells were then washed and resuspended in 1×PBS/1% BSA. MFI of the cells was measured by a flow cytometer and analyzed by FlowJo (version 7.6.1).

For test [7], the target named is T5, Human PD-1 on CHO-S cells. The experiment in a line: FACS on CHO-S.hPro1.C6 cells. As for the experimental part: The cells CHO-S.hPro1.C6 (2×10⁵ cells/well) were incubated with various concentrations of anti-PD-1 antibodies (4-fold serially diluted from 133.3 nM to 0.008 nM) at 4° C. for 1 hour. After washing with 1×PBS/1% BSA, the secondary antibody PE-labeled goat anti-human IgG was applied and incubated with cells at 4° C. for 1 hour. Anti-human PD-1 antibodies BMK1 and BMK3 were used as positive control. Human IgG4 isotype antibody was used as negative control. The cells were then washed and resuspended in 1×PBS/1% BSA. MFI of the cells was measured by a flow cytometer (BD) and analyzed by FlowJo (version 7.6.1).

Substitutions are numbered along the chain they refer to. Names and notes keep the numbering of the source.

T5 sequence (Q15116 25-288): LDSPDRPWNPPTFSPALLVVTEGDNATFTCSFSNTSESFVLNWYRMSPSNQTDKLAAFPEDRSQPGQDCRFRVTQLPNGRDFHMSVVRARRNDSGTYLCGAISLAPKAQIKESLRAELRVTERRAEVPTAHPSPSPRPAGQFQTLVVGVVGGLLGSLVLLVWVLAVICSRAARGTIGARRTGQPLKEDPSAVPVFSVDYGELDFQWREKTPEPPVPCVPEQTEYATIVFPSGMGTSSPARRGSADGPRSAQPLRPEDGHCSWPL

B1: W3056-AP17R1-2H2-FC(IgG4.SP) (Fc fusion)
chain: QVQLVESGGGLVQPGGSLRLSCAASDSIDSLVNMGWYRQAPGKQRELVALIANYITHYADFVKGRFTISRDAAKNTVNLQMSSLKPEDTAVYYCYARNIIVDYWGQGTQVTVSS
notes: VHH fused to Fc of human IgG4 S228P; also called W3056 lead parental antibody (VHH-Fc(hIgG4) fusion); not shown: Fc of human IgG4 (hIgG4.S228P)
Consider B1, for which the EC50 is 4.77 nM with Mouse PD-1 on 293F cells [1] and 1.87 nM in test [7]. The IC50 with Mouse PD-1 on 293F cells [2] is 22.1 nM; in test [6] it was 1 nM. Moreover, the binding result in test [3], in test [4] and in test [5] was “no binding (tested: 100 nM)” in each case.

B2: W3056-AP17R1-2H2-Z1-R1-14A1-FC(IgG4.SP) (Fc fusion)
chain: B1 chain with L11V, N53T, A72N, A73S, V77L, N78Y, S82N, K85R, P86A, Q109L
notes: also called W3056 lead antibody (VHH-Fc(hIgG4) fusion); not shown: Fc of human IgG4 (hIgG4.S228P)
On to B2, for which the EC50 turned out to be 4.26 nM with Mouse PD-1 on 293F cells [1] and 0.612 nM in test [7]. Also, the IC50 was determined as 10.2 nM with Mouse PD-1 on 293F cells [2] and 0.655 nM in test [6]. The binding result in test [3], in test [4] and in test [5] was “no binding (tested: 100 nM)” throughout.

The values are drawn from US20240301067A1 (WUXI BIOLOGICS IRELAND, published 2024).
